In patent US20260152555A1 (HUAHUI HEALTH, published 2026):
Where a chain is given by its changes, count along the chain named. Names and notes keep the numbering of the source.

Key:
hCD112R-ECD-mFc WT = molecular target: T1, hCD112R-ECD-mFc WT (human; mouse, UniProt Q6DKI7 42-172); assay: SPR (Biacore T200), multi-cycle; H733-hIgG4 captured on anti-hFc Ab, hCD112R-ECD-mFc WT injected (3.125-100 nM); 1:1 Langmuir [Cont') B]
T1 construct: range 42-172; also called WT hCD112R; wildtype (WT) hCD112R protein; not shown: Fc domain of mouse IgG2a
T1 sequence (looked up): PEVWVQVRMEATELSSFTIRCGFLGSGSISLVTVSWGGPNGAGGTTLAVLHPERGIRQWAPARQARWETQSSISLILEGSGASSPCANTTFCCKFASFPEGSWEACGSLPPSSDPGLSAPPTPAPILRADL
Protocol: (§1) Kinetic analyses of the bindings of WT or mutated hCD112R-ECD-mFc proteins to H733 and hCD112-ECD were performed on a Biacore T200 instrument (Biacore, GE Healthcare). For the single-cycle SPR analysis, anti-mFc Ab (Thermo Fisher) was covalently attached to surfaces of a CM5 sensor chip using an amine coupling kit (GE Healthcare). WT or mutated hCD112R-ECD mFc fusion proteins were captured on the chip and H733-hIgG4 or hCD112-ECD-hFc were then injected. For the multi-cycle SPR analysis, anti-hFc Ab (Thermo Fisher) was covalently attached to surfaces of a CM5 sensor chip using an amine coupling kit (GE Healthcare). H733-hIgG4 or hCD112-ECD-hFc protein was captured on the chip and 2-fold serially diluted WT or mutated hCD112R-ECD-mFc proteins (3.125-100 nM) were then injected. Binding kinetics were evaluated using a 1:1 Langmuir binding model. The association rates (ka), dissociation rates (kd), and affinity constants (KD) were calculated using Biacore T200 evaluation software.

L72A = molecular target: T2, L72A (human, UniProt Q6DKI7); assay: SPR (Biacore T200), multi-cycle; H733-hIgG4 captured on anti-hFc Ab, hCD112R-ECD-mFc variant injected (3.125-100 nM); 1:1 Langmuir [Cont') B]
T2 construct: extracellular domain, amino acids 42-172; alanine-scanning variant; also called hCD112R-ECD-mFc L72A variant
T2 sequence (Fc fusion chain, looked up): T1 sequence (looked up) with L31A
Protocol: as §1

H92A = molecular target: T3, H92A (human, UniProt Q6DKI7); assay: as above
T3 construct: extracellular domain, amino acids 42-172; alanine-scanning variant; also called hCD112R-ECD-mFc H92A variant
T3 sequence (Fc fusion chain, looked up): T1 sequence (looked up) with H51A
Protocol: as §1

E94A = molecular target: T4, E94A (human, UniProt Q6DKI7); assay: as above
T4 construct: extracellular domain, amino acids 42-172; alanine-scanning variant; also called hCD112R-ECD-mFc E94A variant
T4 sequence (Fc fusion chain, looked up): T1 sequence (looked up) with E53A
Protocol: as §1

K135A = molecular target: T5, K135A (human, UniProt Q6DKI7); assay: as above
T5 construct: extracellular domain, amino acids 42-172; alanine-scanning variant; also called hCD112R-ECD-mFc K135A variant
T5 sequence (Fc fusion chain, looked up): T1 sequence (looked up) with K94A
Protocol: as §1

F139A = molecular target: T6, F139A (human, UniProt Q6DKI7); assay: as above
T6 construct: extracellular domain, amino acids 42-172; alanine-scanning variant; also called hCD112R-ECD-mFc F139A variant
T6 sequence (Fc fusion chain, looked up): T1 sequence (looked up) with F98A
Protocol: as §1

[1] = molecular target: T7, hCD112R-ECD-mFc V90A variant (human; mouse, UniProt Q6DKI7 42-172); assay: as above
T7 construct: range 42-172; also called V90A mutation of hCD112R; not shown: Fc domain of mouse IgG2a
T7 sequence (looked up): T1 sequence (looked up) with V49A
Protocol: as §1

Kd (hCD112R-ECD-mFc WT): 0.333 nM
koff (hCD112R-ECD-mFc WT): 0.000364 s⁻¹
kon (hCD112R-ECD-mFc WT): 1.1e+06 M⁻¹ s⁻¹
Kd (L72A): 0.469 nM
koff (L72A): 0.000394 s⁻¹
kon (L72A): 840000 M⁻¹ s⁻¹
Kd (H92A): 0.366 nM
koff (H92A): 0.000373 s⁻¹
kon (H92A): 1.02e+06 M⁻¹ s⁻¹
Kd (E94A): 0.533 nM
koff (E94A): 0.000573 s⁻¹
kon (E94A): 1.08e+06 M⁻¹ s⁻¹
Kd (K135A): 0.847 nM
koff (K135A): 0.000412 s⁻¹
kon (K135A): 487000 M⁻¹ s⁻¹
Kd (F139A): 0.165 nM
koff (F139A): 0.000232 s⁻¹
kon (F139A): 1.4e+06 M⁻¹ s⁻¹
Kd [1]: 2.01 nM
koff [1]: 0.000475 s⁻¹
kon [1]: 237000 M⁻¹ s⁻¹
B1: H733 (humanized Ab composed of 733-VH-humanV2 and 733-VL-human-C91S) (antibody, human IgG4, V domains shown)
VH: QVQLVQSGAEVKKPGASVKVSCKASGYTFTNYLIEWVRQAPGQGLEWMGVINPGHGFTNYAQKFQGRVTMTRDTSTSTVYMELSSLRSEDTAVYYCARGEWDWYFDVWGQGTTVTVSS
VL: DIQLTQSPSFLSASVGDRVTITCKASQNVGTAVAWYQQKPGKAPKLLIYSTSNRYTGVPSRFSGSGSGTEFTLTISSLQPEDFATYYCQQSSSYPFTFGGGTKVEIK
notes: also called H733-hIgG4; H733 mAb (hIgG4 form)
